pKd data for 1 molecule are collected here from patent publication US20250339569A1 (3B PHARMACEUTICALS, published 2025).

The target in the experiment is T1, canine carbonic anhydrase 9 (CAIX) (dog).
T1 construct: Expressed on transfected CHO cells (CHO-dogCA9); also called dgCAIX; dog CAIX
The experiment is described as follows: radioligand saturation binding on CHO-dgCAIX cells, 8 h at 37 °C, experiment iii.

Starred links: 1 amine or outer side, 2 acyl side, 3 side chain; linkers in the order of their positions; H or OH if unused. Positions of bridges follow the written chain, without caps; N, C: chain ends. Non-standard residues stand in square brackets, D forms with d. Primed or numbered codes have the meaning given here. *: point of attachment. Aph(SaPr)(3) = 4-amino-L-phenylalanine with ring amino acylated by 3-sulfamoylpropanoic acid, NS(=O)(=O)CCC(=O)Nc1ccc(C[C@H](N[*:1])C(=O)[*:2])cc1; DOTA = O=C(O)CN1CCN(CC(=O)O)CCN(CC(=O)*)CCN(CC(=O)O)CC1; mXylylene = c1cc(C[*:1])cc(C[*:2])c1

T1 sequence (chain, as listed by the source limits assumed): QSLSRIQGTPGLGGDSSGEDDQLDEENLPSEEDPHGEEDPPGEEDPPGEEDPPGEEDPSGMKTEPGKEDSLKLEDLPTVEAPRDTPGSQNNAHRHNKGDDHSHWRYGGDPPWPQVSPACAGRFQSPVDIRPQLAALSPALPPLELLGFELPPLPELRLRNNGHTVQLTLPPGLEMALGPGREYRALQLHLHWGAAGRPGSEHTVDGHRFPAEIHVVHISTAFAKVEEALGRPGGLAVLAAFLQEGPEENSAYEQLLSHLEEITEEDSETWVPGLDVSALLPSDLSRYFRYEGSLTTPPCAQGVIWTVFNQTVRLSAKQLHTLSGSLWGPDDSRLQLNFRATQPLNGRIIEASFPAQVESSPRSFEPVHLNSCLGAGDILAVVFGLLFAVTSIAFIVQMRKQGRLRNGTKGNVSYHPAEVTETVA
Method: The radioligand saturation binding on CHO-huCAIX and dgCAIX was determined as follows. […] To determine total binding, 700 μL of binding medium and 100 μL of the radioligand dilutions were added to the wells in triplicates. […] The plates were incubated for 8 h at 37° C. under standard cell culture conditions (5% CO2). At the end of the incubation time the plates were placed on ice while aspirating the radioligand solutions. Aliquots of the 20 nM supernatants were transferred to HPLC vials for analysis of radioligand stability over the incubation time. Subsequently, the cells were washed with ice-cold PBS (0.5 mL, 1 mL, 1 mL). 300 μL of RIPA buffer containing PIC was added to each well and the plates were placed on a shaker for 10 min at ambient temperature. 200 μL of the cell lysate of each well was transferred to gamma-counting tubes. Their associated radioactivity was counted using a gamma counter and normalized to the measured protein concentration of each well (see chapter 6.3.7 BCA protein assay). An aliquot of each radioligand dilution was included in the gamma counter measurements to allow for determination of the actual radioligand concentrations in the dilution series.

B1: [^111In]In-DPI-4501 (peptide)
peptide: {DOTA}-QCE[dP]D[Aph(SaPr)(3)]LTWSC-NH2
modifications: linker 2-11 via mXylylene; also: 111In complexed by DOTA
notes: Cyclic peptide with chelator DOTA complexing In-111; X stands for the non-natural residue Aph(SaPr); also called ^111In-DOTA-Q-[C(3MeBn)-EPD-Aph(SaPr)-LTWSC]-NH2; ^111In-3BP-4501
For the molecule B1, the pKd is 9.6 -log10(M).
